The source of these data is US20240190920A1 (SHENZHEN RESEARCH INSTITUTE OF THE HONG KONG POLYTECHNIC …, published 2024).

B1: i7-01s-02 (Ac-[Tat]-RLIQ(R8)REDREK(S5)RAV-NH2) (peptide)
peptide: Ac-YGRKKRRQRRRRLIQ[R8]REDREK[S5]RAV-NH2
modifications: staple 16-23
SMILES: CC[C@H](C)[C@H](NC(=O)[C@H](CC(C)C)NC(=O)[C@H](CCCNC(=N)N)NC(=O)[C@H](CCCNC(=N)N)NC(=O)[C@H](CCCNC(=N)N)NC(=O)[C@H](CCCNC(=N)N)NC(=O)[C@H](CCC(N)=O)NC(=O)[C@H](CCCNC(=N)N)NC(=O)[C@H](CCCNC(=N)N)NC(=O)[C@H](CCCCN)NC(=O)[C@H](CCCCN)NC(=O)[C@H](CCCNC(=N)N)NC(=O)CNC(=O)[C@H](Cc1ccc(O)cc1)NC(C)=O)C(=O)N[C@@H](CCC(N)=O)C(=O)N[C@]1(C)CCCCCCC=CCCC[C@@](C)(C(=O)N[C@@H](CCCNC(=N)N)C(=O)N[C@@H](C)C(=O)N[C@H](C(N)=O)C(C)C)NC(=O)[C@H](CCCCN)NC(=O)[C@H](CCC(=O)O)NC(=O)[C@H](CCCNC(=N)N)NC(=O)[C@H](CC(=O)O)NC(=O)[C@H](CCC(=O)O)NC(=O)[C@H](CCCNC(=N)N)NC1=O
B2: i7-01s-64 (Ac-[Tat]-RLII(R8)QEDVEK(S5)RKR-NH2) (peptide)
peptide: Ac-YGRKKRRQRRRRLII[R8]QEDVEK[S5]RKR-NH2
modifications: staple 16-23
SMILES: CC[C@H](C)[C@H](NC(=O)[C@H](CC(C)C)NC(=O)[C@H](CCCNC(=N)N)NC(=O)[C@H](CCCNC(=N)N)NC(=O)[C@H](CCCNC(=N)N)NC(=O)[C@H](CCCNC(=N)N)NC(=O)[C@H](CCC(N)=O)NC(=O)[C@H](CCCNC(=N)N)NC(=O)[C@H](CCCNC(=N)N)NC(=O)[C@H](CCCCN)NC(=O)[C@H](CCCCN)NC(=O)[C@H](CCCNC(=N)N)NC(=O)CNC(=O)[C@H](Cc1ccc(O)cc1)NC(C)=O)C(=O)N[C@H](C(=O)N[C@]1(C)CCCCCCC=CCCC[C@@](C)(C(=O)N[C@@H](CCCNC(=N)N)C(=O)N[C@@H](CCCCN)C(=O)N[C@@H](CCCNC(=N)N)C(N)=O)NC(=O)[C@H](CCCCN)NC(=O)[C@H](CCC(=O)O)NC(=O)[C@H](C(C)C)NC(=O)[C@H](CC(=O)O)NC(=O)[C@H](CCC(=O)O)NC(=O)[C@H](CCC(N)=O)NC1=O)[C@@H](C)CC
B3: i7-01s-10 (Ac-[Tat]-RLIQ(R8)REDREK(S5)RAR-NH2) (peptide)
peptide: Ac-YGRKKRRQRRRRLIQ[R8]REDREK[S5]RAR-NH2
modifications: staple 16-23
SMILES: CC[C@H](C)[C@H](NC(=O)[C@H](CC(C)C)NC(=O)[C@H](CCCNC(=N)N)NC(=O)[C@H](CCCNC(=N)N)NC(=O)[C@H](CCCNC(=N)N)NC(=O)[C@H](CCCNC(=N)N)NC(=O)[C@H](CCC(N)=O)NC(=O)[C@H](CCCNC(=N)N)NC(=O)[C@H](CCCNC(=N)N)NC(=O)[C@H](CCCCN)NC(=O)[C@H](CCCCN)NC(=O)[C@H](CCCNC(=N)N)NC(=O)CNC(=O)[C@H](Cc1ccc(O)cc1)NC(C)=O)C(=O)N[C@@H](CCC(N)=O)C(=O)N[C@]1(C)CCCCCCC=CCCC[C@@](C)(C(=O)N[C@@H](CCCNC(=N)N)C(=O)N[C@@H](C)C(=O)N[C@@H](CCCNC(=N)N)C(N)=O)NC(=O)[C@H](CCCCN)NC(=O)[C@H](CCC(=O)O)NC(=O)[C@H](CCCNC(=N)N)NC(=O)[C@H](CC(=O)O)NC(=O)[C@H](CCC(=O)O)NC(=O)[C@H](CCCNC(=N)N)NC1=O
B4: i7-01s-37 (Ac-[Tat]-RLIQ(R8)KEDVEK(S5)RKR-NH2) (peptide)
peptide: Ac-YGRKKRRQRRRRLIQ[R8]KEDVEK[S5]RKR-NH2
modifications: staple 16-23
SMILES: CC[C@H](C)[C@H](NC(=O)[C@H](CC(C)C)NC(=O)[C@H](CCCNC(=N)N)NC(=O)[C@H](CCCNC(=N)N)NC(=O)[C@H](CCCNC(=N)N)NC(=O)[C@H](CCCNC(=N)N)NC(=O)[C@H](CCC(N)=O)NC(=O)[C@H](CCCNC(=N)N)NC(=O)[C@H](CCCNC(=N)N)NC(=O)[C@H](CCCCN)NC(=O)[C@H](CCCCN)NC(=O)[C@H](CCCNC(=N)N)NC(=O)CNC(=O)[C@H](Cc1ccc(O)cc1)NC(C)=O)C(=O)N[C@@H](CCC(N)=O)C(=O)N[C@]1(C)CCCCCCC=CCCC[C@@](C)(C(=O)N[C@@H](CCCNC(=N)N)C(=O)N[C@@H](CCCCN)C(=O)N[C@@H](CCCNC(=N)N)C(N)=O)NC(=O)[C@H](CCCCN)NC(=O)[C@H](CCC(=O)O)NC(=O)[C@H](C(C)C)NC(=O)[C@H](CC(=O)O)NC(=O)[C@H](CCC(=O)O)NC(=O)[C@H](CCCCN)NC1=O
B5: i7-01s-45 (Ac-[Tat]-RLKQ(R8)LEDVEK(S5)RKR-NH2) (peptide)
peptide: Ac-YGRKKRRQRRRRLKQ[R8]LEDVEK[S5]RKR-NH2
modifications: staple 16-23
SMILES: CC(=O)N[C@@H](Cc1ccc(O)cc1)C(=O)NCC(=O)N[C@@H](CCCNC(=N)N)C(=O)N[C@@H](CCCCN)C(=O)N[C@@H](CCCCN)C(=O)N[C@@H](CCCNC(=N)N)C(=O)N[C@@H](CCCNC(=N)N)C(=O)N[C@@H](CCC(N)=O)C(=O)N[C@@H](CCCNC(=N)N)C(=O)N[C@@H](CCCNC(=N)N)C(=O)N[C@@H](CCCNC(=N)N)C(=O)N[C@@H](CCCNC(=N)N)C(=O)N[C@@H](CC(C)C)C(=O)N[C@@H](CCCCN)C(=O)N[C@@H](CCC(N)=O)C(=O)N[C@]1(C)CCCCCCC=CCCC[C@@](C)(C(=O)N[C@@H](CCCNC(=N)N)C(=O)N[C@@H](CCCCN)C(=O)N[C@@H](CCCNC(=N)N)C(N)=O)NC(=O)[C@H](CCCCN)NC(=O)[C@H](CCC(=O)O)NC(=O)[C@H](C(C)C)NC(=O)[C@H](CC(=O)O)NC(=O)[C@H](CCC(=O)O)NC(=O)[C@H](CC(C)C)NC1=O
B6: i7-01s-58 (Ac-[Tat]-RLIE(R8)REIVEK(S5)RKR-NH2) (peptide)
peptide: Ac-YGRKKRRQRRRRLIE[R8]REIVEK[S5]RKR-NH2
modifications: staple 16-23
SMILES: CC[C@H](C)[C@H](NC(=O)[C@H](CC(C)C)NC(=O)[C@H](CCCNC(=N)N)NC(=O)[C@H](CCCNC(=N)N)NC(=O)[C@H](CCCNC(=N)N)NC(=O)[C@H](CCCNC(=N)N)NC(=O)[C@H](CCC(N)=O)NC(=O)[C@H](CCCNC(=N)N)NC(=O)[C@H](CCCNC(=N)N)NC(=O)[C@H](CCCCN)NC(=O)[C@H](CCCCN)NC(=O)[C@H](CCCNC(=N)N)NC(=O)CNC(=O)[C@H](Cc1ccc(O)cc1)NC(C)=O)C(=O)N[C@@H](CCC(=O)O)C(=O)N[C@]1(C)CCCCCCC=CCCC[C@@](C)(C(=O)N[C@@H](CCCNC(=N)N)C(=O)N[C@@H](CCCCN)C(=O)N[C@@H](CCCNC(=N)N)C(N)=O)NC(=O)[C@H](CCCCN)NC(=O)[C@H](CCC(=O)O)NC(=O)[C@H](C(C)C)NC(=O)[C@H]([C@@H](C)CC)NC(=O)[C@H](CCC(=O)O)NC(=O)[C@H](CCCNC(=N)N)NC1=O
B7: i7-01s-70 (Ac-[Tat]-RLIQ(R8)KGDVEL(S5)RKR-NH2) (peptide)
peptide: Ac-YGRKKRRQRRRRLIQ[R8]KGDVEL[S5]RKR-NH2
modifications: staple 16-23
SMILES: CC[C@H](C)[C@H](NC(=O)[C@H](CC(C)C)NC(=O)[C@H](CCCNC(=N)N)NC(=O)[C@H](CCCNC(=N)N)NC(=O)[C@H](CCCNC(=N)N)NC(=O)[C@H](CCCNC(=N)N)NC(=O)[C@H](CCC(N)=O)NC(=O)[C@H](CCCNC(=N)N)NC(=O)[C@H](CCCNC(=N)N)NC(=O)[C@H](CCCCN)NC(=O)[C@H](CCCCN)NC(=O)[C@H](CCCNC(=N)N)NC(=O)CNC(=O)[C@H](Cc1ccc(O)cc1)NC(C)=O)C(=O)N[C@@H](CCC(N)=O)C(=O)N[C@]1(C)CCCCCCC=CCCC[C@@](C)(C(=O)N[C@@H](CCCNC(=N)N)C(=O)N[C@@H](CCCCN)C(=O)N[C@@H](CCCNC(=N)N)C(N)=O)NC(=O)[C@H](CC(C)C)NC(=O)[C@H](CCC(=O)O)NC(=O)[C@H](C(C)C)NC(=O)[C@H](CC(=O)O)NC(=O)CNC(=O)[C@H](CCCCN)NC1=O
B8: i7-01s-75 (Ac-[Tat]-RLIY(R8)MEDVEK(S5)RKR-NH2) (peptide)
peptide: Ac-YGRKKRRQRRRRLIY[R8]MEDVEK[S5]RKR-NH2
modifications: staple 16-23
SMILES: CC[C@H](C)[C@H](NC(=O)[C@H](CC(C)C)NC(=O)[C@H](CCCNC(=N)N)NC(=O)[C@H](CCCNC(=N)N)NC(=O)[C@H](CCCNC(=N)N)NC(=O)[C@H](CCCNC(=N)N)NC(=O)[C@H](CCC(N)=O)NC(=O)[C@H](CCCNC(=N)N)NC(=O)[C@H](CCCNC(=N)N)NC(=O)[C@H](CCCCN)NC(=O)[C@H](CCCCN)NC(=O)[C@H](CCCNC(=N)N)NC(=O)CNC(=O)[C@H](Cc1ccc(O)cc1)NC(C)=O)C(=O)N[C@@H](Cc1ccc(O)cc1)C(=O)N[C@]1(C)CCCCCCC=CCCC[C@@](C)(C(=O)N[C@@H](CCCNC(=N)N)C(=O)N[C@@H](CCCCN)C(=O)N[C@@H](CCCNC(=N)N)C(N)=O)NC(=O)[C@H](CCCCN)NC(=O)[C@H](CCC(=O)O)NC(=O)[C@H](C(C)C)NC(=O)[C@H](CC(=O)O)NC(=O)[C@H](CCC(=O)O)NC(=O)[C@H](CCSC)NC1=O
B9: i7-01s-57 (Ac-[Tat]-RRIQ(R8)MEDVLK(S5)RKR-NH2) (peptide)
peptide: Ac-YGRKKRRQRRRRRIQ[R8]MEDVLK[S5]RKR-NH2
modifications: staple 16-23
SMILES: CC[C@H](C)[C@H](NC(=O)[C@H](CCCNC(=N)N)NC(=O)[C@H](CCCNC(=N)N)NC(=O)[C@H](CCCNC(=N)N)NC(=O)[C@H](CCCNC(=N)N)NC(=O)[C@H](CCCNC(=N)N)NC(=O)[C@H](CCC(N)=O)NC(=O)[C@H](CCCNC(=N)N)NC(=O)[C@H](CCCNC(=N)N)NC(=O)[C@H](CCCCN)NC(=O)[C@H](CCCCN)NC(=O)[C@H](CCCNC(=N)N)NC(=O)CNC(=O)[C@H](Cc1ccc(O)cc1)NC(C)=O)C(=O)N[C@@H](CCC(N)=O)C(=O)N[C@]1(C)CCCCCCC=CCCC[C@@](C)(C(=O)N[C@@H](CCCNC(=N)N)C(=O)N[C@@H](CCCCN)C(=O)N[C@@H](CCCNC(=N)N)C(N)=O)NC(=O)[C@H](CCCCN)NC(=O)[C@H](CC(C)C)NC(=O)[C@H](C(C)C)NC(=O)[C@H](CC(=O)O)NC(=O)[C@H](CCC(=O)O)NC(=O)[C@H](CCSC)NC1=O

Bridge positions count the residues as written; N and C are the ends. Square brackets hold non-standard residues; d marks the D form. R8 = C=CCCCCCC[C@@](C)(N)C(=O)O; S5 = C=CCCC[C@](C)(N)C(=O)O

T1 sequence (Q14457 176-268 limits assumed): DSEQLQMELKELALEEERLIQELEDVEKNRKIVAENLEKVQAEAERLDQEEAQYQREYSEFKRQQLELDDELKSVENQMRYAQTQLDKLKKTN

The experiment addresses T1, Beclin 1 coiled coil domain (human Beclin 1, residues 176-268) (human, UniProt Q14457 176-268).
T1 construct: range 176-268; also called Beclin 1 coiled coil domain protein
The experiment in a line: ITC, peptide titrated into Beclin 1 coiled coil domain, 25 C, one-site model. (In general: Isothermal titration calorimetry measures the heat released or taken up as one component is titrated into another.)
A word on the Kd: it is the free concentration of one partner at which half of the binding sites on the other are occupied at equilibrium, for simple one-to-one binding. Ac-YGRKKRRQRRRRLISEL[R8]DREKQR[S5]A-NH2 (staple 18-25) [Tat-SP4 (Ac-[Tat]-RLISEL(R8)DREKQR(S5)A-NH2)] returned a Kd of 3210 nM. For the molecule B1, the Kd was 860 nM.

In turn, B2 displayed a Kd of 356000 nM. B3 displayed a Kd of 2030 nM. In turn, B4 gave a Kd of 2410 nM. This Kd and that of the molecule before are within 1.5-fold of each other. Molecule B5 showed a Kd of 1410 nM. Consider B6, for which the affinity, expressed as Kd, was 610 nM. B7 came in with a Kd of 2140 nM. Take B8: binding was characterised by a dissociation constant (Kd) of 1290 nM. Against the preceding molecule, the Kd is about 1.7-fold lower. For B9, binding was put at a Kd of 2200 nM.
